Patent US20090311267A1 (UNIVERSITY OF WURZBURG, published 2009)
Several values for one entry are separate records, joined by “and”; a condition that tells them apart may be missing. Equal values may be shown once.

Assays:
[1] = biological target: T1, (1-289) recombinant (r) GPIbα fragment expressed by Chinese hamster ovary cells (human, UniProt P07359 17-305); assay: ELISA: inhibition of ristocetin (300 µg/ml)-induced binding of vWF to rGPIbα captured on 2D4
T1 construct: they seem to count on the mature chain, not on the precursor; Fragment obtained from Meyer et al; also called rGPIb-fragment; recombinant GPIbα fragment (His1-Val289)

[2] = biological target: human platelet glycoprotein GPIb (on human platelets) (human, UniProt P07359 17-652); assay: cell-based or functional assay
[3] = biological target: T1, (1-289) recombinant (r) GPIbα fragment …; assay: ELISA: inhibition of botrocetin (0.5 µg/ml)-induced binding of vWF to rGPIbα captured on 2D4

B1: 6B4 Fab fragments (Fab, V domains shown)
VH: QVQLQESGPGLVAPSQSLSITCTVSGISLNRYGVHWVRQPPGKGLEWLGVIWTGGSTNYNSALMSRLSISKDNSKSQVFLKMNSLQTDDTAMYYCARDRSTMITAYAMDYWGQGTTVTVSS
VL: DIELTQSPAIMSASPGEKVTMTCSASSSVNYMHWFQQESGTFPKRRIYDTSKLASGVPARLSGSGSGTEFTLEISRVKAEDVGVYYCQQLVEYPLTFGAGTKLELK
IC50 [1]: 1.8 µg/mL and 36 nM | IC50 of botrocetin-(0.5 µg/ml) induced human platelet agglutination [2]: 2 µg/ml and 40 nmol/L | IC50 of ristocetin-(1 mg/ml) induced human platelet agglutination [2]: 1.2 µg/ml and 24 nmol/L | IC50 [3]: 2.5 µg/mL and 50 nM
